Experimental data as given in publication doi:10.1101/094961 (bioRxiv, 2017).

Target: RNAP β' subunit with 6his tag (rpoC-6his), in purified δ-containing RNAP (B. subtilis, UniProt P37871 1-1199)
Experiment: cross-linking

Sequence of RNAP β' subunit with 6his tag (rpoC-6his), in purified δ-containing RNAP (P37871 whole entry, stated change not applied): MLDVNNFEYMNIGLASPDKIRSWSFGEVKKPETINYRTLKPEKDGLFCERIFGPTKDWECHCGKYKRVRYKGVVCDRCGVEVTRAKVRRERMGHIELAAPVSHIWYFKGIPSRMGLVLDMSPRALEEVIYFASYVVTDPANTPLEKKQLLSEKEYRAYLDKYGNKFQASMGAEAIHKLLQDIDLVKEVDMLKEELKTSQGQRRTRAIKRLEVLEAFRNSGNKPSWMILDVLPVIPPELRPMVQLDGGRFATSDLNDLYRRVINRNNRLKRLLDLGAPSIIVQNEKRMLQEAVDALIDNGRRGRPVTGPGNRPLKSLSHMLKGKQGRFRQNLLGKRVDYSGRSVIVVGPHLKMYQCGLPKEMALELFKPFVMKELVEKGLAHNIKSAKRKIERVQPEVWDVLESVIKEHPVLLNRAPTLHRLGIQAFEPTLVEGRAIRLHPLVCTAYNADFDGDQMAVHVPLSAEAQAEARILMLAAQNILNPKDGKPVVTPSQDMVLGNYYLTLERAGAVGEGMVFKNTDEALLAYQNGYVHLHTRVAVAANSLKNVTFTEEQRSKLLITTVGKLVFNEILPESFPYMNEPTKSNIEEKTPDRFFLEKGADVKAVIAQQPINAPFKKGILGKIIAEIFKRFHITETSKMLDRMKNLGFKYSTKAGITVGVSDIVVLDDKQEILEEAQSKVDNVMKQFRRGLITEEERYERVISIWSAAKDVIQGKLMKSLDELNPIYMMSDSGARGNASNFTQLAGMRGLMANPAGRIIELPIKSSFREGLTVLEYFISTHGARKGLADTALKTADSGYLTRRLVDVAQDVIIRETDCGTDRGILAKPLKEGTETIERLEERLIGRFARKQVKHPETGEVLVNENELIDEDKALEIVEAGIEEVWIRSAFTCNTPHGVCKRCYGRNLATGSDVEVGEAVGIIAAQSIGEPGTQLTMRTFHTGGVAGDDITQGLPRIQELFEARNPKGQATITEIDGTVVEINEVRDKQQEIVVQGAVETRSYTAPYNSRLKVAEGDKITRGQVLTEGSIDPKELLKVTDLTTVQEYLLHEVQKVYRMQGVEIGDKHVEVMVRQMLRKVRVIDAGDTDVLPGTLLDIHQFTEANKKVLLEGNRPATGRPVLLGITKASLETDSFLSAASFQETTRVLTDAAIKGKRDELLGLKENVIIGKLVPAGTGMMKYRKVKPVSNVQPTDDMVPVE

binding result: binds
B1: δ subunit (RpoE) of RNA polymerase (natural protein, UniProt P12464 1-173, looked up)
chain: MGIKQYSQEELKEMALVEIAHELFEEHKKPVPFQELLNEIASLLGVKKEELGDRIAQFYTDLNIDGRFLALSDQTWGLRSWYPYDQLDEETQPTVKAKKKKAKKAVEEDLDLDEFEEIDEDDLDLDEVEEELDLEADDFDEEDLDEDDDDLEIEEDIIDEDDEDYDDEEEEIK
